Assay results taken from article PMC5418926, “A Functional Role for the Monomethylated Gln-51 and Lys-53 Residues of the 49GGQTK53 Motif of eL42 from Human 80S Ribosomes” (The Open Biochemistry Journal, 2017).

Target: human recombinant eL42-Δ(GGQTK) variant, His-tagged (human, UniProt P83881 1-106, Δ(GGQTK), residues 49-GGQTK-53 deleted)
Test: SPR; Biacore 3000; His-tagged eL42 species immobilised by amine coupling on a CM5 chip; eRF1 or EF-3 as analyte; 25°C, HBS-EP (10 mM HEPES pH 7.4, 150 mM NaCl, 3 mM EDTA, 0.005% P20), 5 µL/min; 1:1 Langmuir fit; mean of 3 experiments
Settings: both partners purified

Kd: 9.2 µM
B1: elongation factor 3 (EF-3) from S. cerevisiae, His-tagged (natural protein, UniProt P16521 1-1044, looked up)
chain: MSDSQQSIKVLEELFQKLSVATADNRHEIASEVASFLNGNIIEHDVPEHFFGELAKGIKDKKTAANAMQAVAHIANQSNLSPSVEPYIVQLVPAICTNAGNKDKEIQSVASETLISIVNAVNPVAIKALLPHLTNAIVETNKWQEKIAILAAISAMVDAAKDQVALRMPELIPVLSETMWDTKKEVKAAATAAMTKATETVDNKDIERFIPSLIQCIADPTEVPETVHLLGATTFVAEVTPATLSIMVPLLSRGLNERETGIKRKSAVIIDNMCKLVEDPQVIAPFLGKLLPGLKSNFATIADPEAREVTLRALKTLRRVGNVGEDDAIPEVSHAGDVSTTLQVVNELLKDETVAPRFKIVVEYIAAIGADLIDERIIDQQAWFTHITPYMTIFLHEKKAKDILDEFRKRAVDNIPVGPNFDDEEDEGEDLCNCEFSLAYGAKILLNKTQLRLKRARRYGICGPNGCGKSTLMRAIANGQVDGFPTQEECRTVYVEHDIDGTHSDTSVLDFVFESGVGTKEAIKDKLIEFGFTDEMIAMPISALSGGWKMKLALARAVLRNADILLLDEPTNHLDTVNVAWLVNYLNTCGITSITISHDSVFLDNVCEYIINYEGLKLRKYKGNFTEFVKKCPAAKAYEELSNTDLEFKFPEPGYLEGVKTKQKAIVKVTNMEFQYPGTSKPQITDINFQCSLSSRIAVIGPNGAGKSTLINVLTGELLPTSGEVYTHENCRIAYIKQHAFAHIESHLDKTPSEYIQWRFQTGEDRETMDRANRQINENDAEAMNKIFKIEGTPRRIAGIHSRRKFKNTYEYECSFLLGENIGMKSERWVPMMSVDNAWIPRGELVESHSKMVAEVDMKEALASGQFRPLTRKEIEEHCSMLGLDPEIVSHSRIRGLSGGQKVKLVLAAGTWQRPHLIVLDEPTNYLDRDSLGALSKALKEFEGGVIIITHSAEFTKNLTEEVWAVKDGRMTPSGHNWVSGQGAGPRIEKKEDEEDKFDAMGNKIAGGKKKKKLSSAELRKKKKERMKKKKELGDAYVSSDEEF
notes: S. cerevisiae elongation factor 3; The expression strain was a gift of Maria Mateyak; also called eEF-3; yeast EF-3; source: E. coli TKBL40 (BL21, His-tagged eEF-3 in pET11a), purified (His GraviTrap)
